T1: angiotensin-converting enzyme (ACE) from rabbit lung (rabbit) (UniProt P12822)
T1 sequence: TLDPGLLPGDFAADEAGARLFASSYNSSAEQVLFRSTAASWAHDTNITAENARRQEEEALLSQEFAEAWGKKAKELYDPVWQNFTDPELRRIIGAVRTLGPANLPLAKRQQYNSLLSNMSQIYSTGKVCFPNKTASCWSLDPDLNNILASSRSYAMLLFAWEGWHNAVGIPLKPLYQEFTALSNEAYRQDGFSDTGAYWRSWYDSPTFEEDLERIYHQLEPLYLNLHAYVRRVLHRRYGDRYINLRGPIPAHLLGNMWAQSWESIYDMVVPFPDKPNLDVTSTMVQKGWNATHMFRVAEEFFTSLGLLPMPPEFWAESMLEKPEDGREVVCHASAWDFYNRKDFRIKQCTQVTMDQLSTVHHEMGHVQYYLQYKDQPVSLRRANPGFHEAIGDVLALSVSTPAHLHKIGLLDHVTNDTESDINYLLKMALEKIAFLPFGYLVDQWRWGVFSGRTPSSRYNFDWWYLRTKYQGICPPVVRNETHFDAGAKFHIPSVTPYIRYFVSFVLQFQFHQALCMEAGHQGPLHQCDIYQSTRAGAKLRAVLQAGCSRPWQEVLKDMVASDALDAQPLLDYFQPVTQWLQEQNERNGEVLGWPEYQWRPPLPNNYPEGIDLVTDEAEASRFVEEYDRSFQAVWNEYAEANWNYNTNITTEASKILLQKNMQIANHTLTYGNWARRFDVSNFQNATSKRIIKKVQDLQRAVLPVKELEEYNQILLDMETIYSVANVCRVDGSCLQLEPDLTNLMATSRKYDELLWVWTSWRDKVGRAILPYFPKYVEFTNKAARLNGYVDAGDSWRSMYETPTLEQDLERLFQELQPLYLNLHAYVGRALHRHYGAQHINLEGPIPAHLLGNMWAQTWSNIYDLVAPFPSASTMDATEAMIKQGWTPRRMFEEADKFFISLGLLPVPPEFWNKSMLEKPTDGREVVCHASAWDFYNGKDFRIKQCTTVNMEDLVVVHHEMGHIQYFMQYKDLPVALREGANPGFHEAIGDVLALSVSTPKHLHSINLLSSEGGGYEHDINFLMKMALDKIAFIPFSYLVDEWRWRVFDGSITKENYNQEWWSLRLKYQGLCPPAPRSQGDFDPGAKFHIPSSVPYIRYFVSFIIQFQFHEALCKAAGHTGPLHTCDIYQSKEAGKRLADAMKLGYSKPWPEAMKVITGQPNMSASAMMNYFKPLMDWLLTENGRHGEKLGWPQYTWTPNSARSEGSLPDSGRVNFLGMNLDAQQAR


Biological target: T1, angiotensin-converting enzyme (ACE) from rabbit lung (rabbit)

| ACE inhibitory activity (substrate HHL, hippuric acid by HPLC), peptide at 1 mg/mL [%] | IC50 of ACE inhibitory activity (substrate HHL, hippuric acid by HPLC) [µg/mL] | Binder |
| --- | --- | --- |
| 1.57 | – | STGEAFVQFASQEIAEK |
| 40.9 | – | QFQPGFSSS |
| 26.7 | – | TTPSYVAFTDTER |
| 91.7 | 39 | VALSSLRP |
| 2.81 | – | NPDDITNEEYGEFYK |

Reference: PMC9818667
